Experimental data as given in patent US20180057553A1, “CONJUGATE AND USE THEREOF” (The University of Tokyo, priority 2015, published 2018).

Biological target: recombinant human TNF-alpha (Life Technologies) (human) (UniProt P01375)
Test: SPR (Biacore), Etanercept amine-coupled to chip, TNF-alpha as analyte

Sequence of recombinant human TNF-alpha (Life Technologies) (human) (P01375 77-233 limits assumed): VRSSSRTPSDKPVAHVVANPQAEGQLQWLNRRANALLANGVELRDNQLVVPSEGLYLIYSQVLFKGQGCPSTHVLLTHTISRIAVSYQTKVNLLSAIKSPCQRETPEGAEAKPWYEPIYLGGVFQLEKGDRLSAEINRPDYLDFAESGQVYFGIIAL

- Kd: 313 pM
Substance: Etanercept (soluble TNF receptor, product name Enbrel, Takeda Pharmaceutical Company) (Fc fusion)
